Measurements published in article PMC4859069 (2016).

Target: T1, GST-14-3-3ζ (Drosophila melanogaster (Fruit fly), UniProt P29310)
T1 chain: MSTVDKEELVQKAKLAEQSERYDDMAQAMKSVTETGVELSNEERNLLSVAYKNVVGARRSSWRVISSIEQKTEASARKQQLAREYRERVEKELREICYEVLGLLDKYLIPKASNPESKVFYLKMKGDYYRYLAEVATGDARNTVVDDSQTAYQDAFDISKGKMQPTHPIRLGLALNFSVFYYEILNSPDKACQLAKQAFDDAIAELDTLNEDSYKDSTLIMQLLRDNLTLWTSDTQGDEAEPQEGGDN
Assay: GST pull-down

binding result: binds
B1: MBP-Tctp (protein)
chain: MKIYKDIITGDEMFADTYKMKLVDDVIYEVYGKLITRQGDDIKLEGANASAEEADEGTDITSESGVDVVLNHRLTECFAFGDKKSYTLYLKDYMKKVLAKLEEKSPDQVDIFKTNMNKAMKDILGRFKELQFFTGESMDCDGMVALVEYREINGDSVPVLMFFKHGLEEEKC
